B1: 1ZHC (parent)
chain: HEFRDEISVLKANNPHFDKIFEKHNQLDDDIKTAEQQNASDAEVSHMKKQKLKLKDEIHSMIIEYREK

Variants of: B1
Test: folding stability dG (cDNA display proteolysis); higher = more stable
Conditions: PBS, room temperature

Variant | folding stability dG
H24Q | 0.285 kcal/mol
H24Y | 2.15 kcal/mol
H24A | 0.782 kcal/mol
Q36G | 0.883 kcal/mol
Q36F | 0.822 kcal/mol
Q36W | 0.281 kcal/mol
R4E | 1.08 kcal/mol
R4I | 1.02 kcal/mol
R4K | 0.923 kcal/mol
R4H | 0.919 kcal/mol
L54Y | 0.165 kcal/mol
K51E | -0.779 kcal/mol
K51A | 0.915 kcal/mol
K51L | 2.36 kcal/mol
K51H | 0.299 kcal/mol
K51S | 0.403 kcal/mol
K51C | 0.855 kcal/mol
N38A | 0.467 kcal/mol
N38S | 0.358 kcal/mol
N38F | 0.925 kcal/mol
N38E | -0.059 kcal/mol
N38K | 0.548 kcal/mol
N38Y | 0.303 kcal/mol
K23E | 1.16 kcal/mol

Variant | folding stability dG
K23S | 0.339 kcal/mol
K23Q | 1.33 kcal/mol
K23N | 0.111 kcal/mol
F3R | -0.674 kcal/mol
F3P | 0.015 kcal/mol
F3I | 0.418 kcal/mol
F3T | 0.328 kcal/mol
F3Y | 1.05 kcal/mol
M61F | 0.209 kcal/mol
M61W | -0.462 kcal/mol
T33D | 0.706 kcal/mol
T33L | 1.14 kcal/mol
F21W | 1.79 kcal/mol
D5I | 1.04 kcal/mol
D30V | -0.277 kcal/mol
D30I | 0.712 kcal/mol
D30L | 1.27 kcal/mol
D30K | 1 kcal/mol
D30G | -0.099 kcal/mol
Q37R | 1.51 kcal/mol
Q37T | 0.882 kcal/mol
Q37G | 0.943 kcal/mol
P15R | 0.029 kcal/mol
P15N | 0.045 kcal/mol

Variant | folding stability dG
P15L | 0.336 kcal/mol
P15H | 0.38 kcal/mol
P15C | 0.845 kcal/mol
S60G | 0.362 kcal/mol
S60W | 0.696 kcal/mol
S60C | 1.18 kcal/mol
S60H | 0.79 kcal/mol
A34K | 0.579 kcal/mol
E22Y | 0.584 kcal/mol
E22S | 1.19 kcal/mol
E22V | 0.395 kcal/mol
E22H | 0.392 kcal/mol
N14M | -0.831 kcal/mol
N14Q | -0.421 kcal/mol
N14V | -0.058 kcal/mol
N14A | -0.402 kcal/mol
S8C | 1.67 kcal/mol
H59W | 1.83 kcal/mol
H59I | 1.83 kcal/mol
H59K | 0.399 kcal/mol
E35L | 1.67 kcal/mol
V44G | 0.622 kcal/mol
V44I | 1.57 kcal/mol
D56H | 1.07 kcal/mol

Variant | folding stability dG
D56Q | 1.51 kcal/mol
D56V | 1.02 kcal/mol
D56L | 1.61 kcal/mol
E57M | 1.16 kcal/mol
E57I | 0.87 kcal/mol
E57A | 0.703 kcal/mol
R66K | 0.404 kcal/mol
E43V | 1.22 kcal/mol
E43T | 0.763 kcal/mol
E43L | 1.14 kcal/mol
E43C | 1.01 kcal/mol
A42C | 0.68 kcal/mol
A42M | 0.539 kcal/mol
A42V | 0.662 kcal/mol
I58H | -0.628 kcal/mol
I58M | 0.19 kcal/mol
I58W | -0.545 kcal/mol
K48A | 0.086 kcal/mol
D29R | 1.67 kcal/mol
I31D | -0.93 kcal/mol
I7M | -0.64 kcal/mol
I7L | 0.235 kcal/mol
K68M | 0.491 kcal/mol
K68T | 0.49 kcal/mol

Variant | folding stability dG
D41K | 0.873 kcal/mol
D41Y | 0.879 kcal/mol
D41I | 0.951 kcal/mol
E67H | 1.04 kcal/mol
E67G | 0.605 kcal/mol
H16A | 0.24 kcal/mol
H16L | 0.427 kcal/mol
H16K | 0.147 kcal/mol
H16E | 0.338 kcal/mol
K55Q | 1.28 kcal/mol
K55F | 1.65 kcal/mol
K55M | 1.72 kcal/mol
K55T | 0.273 kcal/mol
K55Y | 1.47 kcal/mol
Y65W | 0.961 kcal/mol
Y65H | 0.113 kcal/mol
Y65C | -0.316 kcal/mol
N13W | 1.06 kcal/mol
N13R | 1 kcal/mol
L52M | 1.28 kcal/mol
L52G | -0.063 kcal/mol
L52A | 1.08 kcal/mol
L52T | 0.288 kcal/mol
L52Y | 0.359 kcal/mol

Variant | folding stability dG
L52I | 0.913 kcal/mol
L52D | 1.02 kcal/mol
K49W | 0.556 kcal/mol
K49Q | 1.27 kcal/mol
K49R | 1.03 kcal/mol
Q50M | 1 kcal/mol
Q50C | 1.12 kcal/mol
Q50F | 0.915 kcal/mol
Q50A | 0.475 kcal/mol
S40G | 0.619 kcal/mol
S40F | 0.13 kcal/mol
S40Y | -0.236 kcal/mol
S40K | 0.104 kcal/mol
S40N | 1.12 kcal/mol
E64A | 1.31 kcal/mol
E64G | -0.85 kcal/mol
E64K | 0.999 kcal/mol
N25C | 1.41 kcal/mol
N25D | 0.646 kcal/mol
N25W | 0.642 kcal/mol
N25H | 0.533 kcal/mol
N25S | 0.766 kcal/mol
A12S | 0.404 kcal/mol
A12E | 0.524 kcal/mol

Variant | folding stability dG
A12I | 0.482 kcal/mol
K32I | 0.135 kcal/mol
K32N | 0.323 kcal/mol
H46K | 1.46 kcal/mol
H46S | 1.28 kcal/mol
H46L | 1.36 kcal/mol
H46G | 0.785 kcal/mol
V9G | 0.417 kcal/mol
V9E | 0.933 kcal/mol
F17C | -0.409 kcal/mol
K19H | 0.901 kcal/mol
K19M | 0.78 kcal/mol
K19R | 1.15 kcal/mol
K19A | 1.13 kcal/mol
K19S | 0.513 kcal/mol
K53P | -0.251 kcal/mol
E2Q | 1.07 kcal/mol
E2R | 1.19 kcal/mol
Q26V | -0.13 kcal/mol
Q26R | 1.28 kcal/mol
Q26H | -0.231 kcal/mol
D28G | 0.786 kcal/mol
D28I | 1.13 kcal/mol

— the MegaScale stability set (Tsuboyama et al. 2023)
